Reference: paper PMC10672205, “Towards a High-Affinity Peptidomimetic Targeting Proliferating Cell Nuclear Antigen from Aspergillus fumigatus” (Journal of Fungi, 2023)
Like-named read-outs stand apart in the source and are kept apart here. Ends that are not written are not given here. Peptide text beside a SMILES is read from it.

How the values were obtained:
[1] = biological target: afumPCNA (A. fumigatus PCNA) (Aspergillus fumigatus, UniProt A0A229Y5V5); assay: biochemical; assay type: binding
Description: Surface plasmon resonance (SPR) experiments were performed as previously described. The running buffer used for ligand attachment and analyte-binding experiments was a 10 mM HEPES buffer with 150 mM NaCl, 3 mM EDTA, and 0.05% Tween-20, adjusted to pH 7.4 with 2 M NaOH. A GE CM5 (series S) sensor chip was primed with the running buffer and preconditioned with successive injections (2 × 50 s, 30 μL/min) of 50 mM NaOH, 10 mM HCl, 0.1% SDS, 0.85% H3PO4, and 50 mM glycine pH 9.5, respectively. The surface was then activated with an injection of 0.2 M 1-ethyl-3-(3-dimethylaminopropyl)carbodiimide (EDC) and 50 mM N-hydroxysuccinimide (NHS) (600 s, 10 μL/min). A. fumigatus PCNA (5 μL, 12 mg/mL) was diluted into the running buffer (245 μL). Upon the preactivation of the surface, the protein was further diluted to a final concentration of 25 μg/mL in 10 mM NaAc (~pH 4.6). This solution was immediately injected over the target flow cell (10 μL/min) to immobilize ~1500 RU. Both the target and reference flow cells were then blocked with 1.0 M ethanolamine at pH 8.5 (600 s, 10 μL/min). The chip was left to stabilize before sample injections commenced.
Peptide stock solutions for use in SPR experiments were prepared in MilliQ water. The peptide stock concentration was determined via 205 nm absorbance with NanoDrop2000. The ε205 for each peptide was calculated using an online calculator (http://nickanthis.com/tools/a205.html, accessed on 22 August 2022 [24]); however, additional glycine residue was added to each peptide sequence to account for the terminal amide of the peptides synthesized in-house. The peptide stock solution’s concentration was then calculated using Beer’s Law.
A 2-fold serial dilution was performed for each peptide, with 8 samples injected sequentially from the lowest to highest concentrations; they were preceded by a buffer-only blank injection. After each injection, the surface was regenerated with 2 M NaCl (2 × 30 s, 25 μL/min). All data were analyzed using the GE Biosystems Biacore S200 Evaluation Software, Version 1.0 (Build: 20).

[2] = biological target: Aspergillus fumigatus proliferating cell nuclear antigen (Aspergillus fumigatus); assay: SPR
[3] = biological target: T1, human proliferating cell nuclear antigen (human, UniProt P12004 1-259); assay: SPR; peptide against human PCNA, tested in triplicate; immobilisation of human PCNA not described here (SPR as previously described, ref. 18); conditions: both partners purified
T1 construct: also called hPCNA; human PCNA
T1 sequence (P12004 1-259): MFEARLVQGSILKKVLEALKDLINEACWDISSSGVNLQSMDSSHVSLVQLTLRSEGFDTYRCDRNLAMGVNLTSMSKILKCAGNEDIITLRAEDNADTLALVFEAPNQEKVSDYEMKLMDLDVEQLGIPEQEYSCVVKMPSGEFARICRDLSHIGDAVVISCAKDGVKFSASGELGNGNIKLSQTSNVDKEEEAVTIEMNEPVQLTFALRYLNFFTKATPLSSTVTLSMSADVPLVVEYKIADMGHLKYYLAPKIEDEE

[4] = afumPCNA Binding Affinity KD (nM) ± SD (nM)
[5] = read-out: afumPCNA Binding Affinity KD (nM) ± SD, SPR steady-state affinity, afumPCNA immobilised on CM5 chip (~1500 RU), 10 mM HEPES, 150 mM NaCl, 3 mM EDTA, 0.05% Tween-20, pH 7.4, 8 x 2-fold dilutions, contact 40 s, dissociation 30 s, KD ± SD
[6] = afumPCNA Binding Affinity KD (nM) ± KD SD (nM)

CSCC[C@H](NC(=O)[C@H](CO)NC(=O)[C@@H](NC(=O)[C@H](CCC(N)=O)NC(=O)[C@H](CCCNC(=N)N)NC(=O)[C@H](CCCNC(=N)N)NC(=O)[C@@H](N)CCCCN)[C@@H](C)O)C(=O)N[C@H](C(=O)N[C@@H](CC(=O)O)C(=O)N[C@@H](Cc1ccc(O)cc1)C(=O)N[C@@H](Cc1ccccc1)C(=O)N[C@@H](Cc1c[nH]cn1)C(=O)N[C@@H](CO)C(=O)N[C@@H](CCCCN)C(=O)N[C@@H](CCCNC(=N)N)C(N)=O)[C@@H](C)O [p21μ-FY150151YF] (H-KRRQTSMTDYFHSKR-NH2)
Kd [1, 4]: 96.4 ± 19.6 nM

CSCC[C@H](NC(=O)[C@H](CCCNC(=N)N)NC(=O)[C@H](CCCNC(=N)N)NC(=O)[C@@H](N)CCCCN)C(=O)N[C@H](C(=O)N[C@@H](CO)C(=O)N[C@@H](CCSC)C(=O)N[C@H](C(=O)N[C@@H](CC(=O)O)C(=O)N[C@@H](Cc1ccccc1)C(=O)N[C@@H](Cc1ccc(O)cc1)C(=O)N[C@@H](Cc1c[nH]cn1)C(=O)N[C@@H](CO)C(=O)N[C@@H](CCCCN)C(=O)N[C@@H](CCCNC(=N)N)C(N)=O)[C@@H](C)O)[C@@H](C)O [p21μ-Q144M] (H-KRRMTSMTDFYHSKR-NH2)
Kd [1, 5]: 41400 nM

CC[C@H](C)[C@H](NC(=O)[C@H](CCCNC(=N)N)NC(=O)[C@@H](NC(=O)[C@H](CCC(N)=O)NC(=O)[C@H](CCCNC(=N)N)NC(=O)[C@H](CCCNC(=N)N)NC(=O)[C@@H](N)CCCCN)[C@@H](C)O)C(=O)N[C@H](C(=O)N[C@@H](CCC(=O)O)C(=O)N[C@@H](Cc1ccc(O)cc1)C(=O)N[C@@H](Cc1ccccc1)C(=O)N[C@@H](Cc1c[nH]cn1)C(=O)N[C@@H](CO)C(=O)N[C@@H](CCCCN)C(=O)N[C@@H](CCCNC(=N)N)C(N)=O)[C@@H](C)O [p21μ-RD2] (H-KRRQTRITEYFHSKR-NH2)
Kd ([1]; Affinity KD (nM) (Table S1)): 20.3 nM

CSCC[C@H](NC(=O)[C@H](CO)NC(=O)[C@H](CC(=O)O)NC(=O)[C@H](CCC(N)=O)NC(=O)[C@H](CCCNC(=N)N)NC(=O)[C@H](CCCNC(=N)N)NC(=O)[C@@H](N)CCCCN)C(=O)N[C@H](C(=O)N[C@@H](CC(=O)O)C(=O)N[C@@H](Cc1ccccc1)C(=O)N[C@@H](Cc1ccc(O)cc1)C(=O)N[C@@H](Cc1c[nH]cn1)C(=O)N[C@@H](CO)C(=O)N[C@@H](CCCCN)C(=O)N[C@@H](CCCNC(=N)N)C(N)=O)[C@@H](C)O [p21μ-T145D] (H-KRRQDSMTDFYHSKR-NH2)
Kd ([1]; Affinity KD (nM) (Table S1), SPR steady-state affinity against AfumPCNA, 8x 1 in 2 dilutions from Top Conc, On/Off 40/30 s): 4110 nM

CSCC[C@H](NC(=O)[C@H](CO)NC(=O)[C@H](CCCCN)NC(=O)[C@H](CCC(N)=O)NC(=O)[C@H](CCCNC(=N)N)NC(=O)[C@H](CCCNC(=N)N)NC(=O)[C@@H](N)CCCCN)C(=O)N[C@H](C(=O)N[C@@H](CC(=O)O)C(=O)N[C@@H](Cc1ccccc1)C(=O)N[C@@H](Cc1ccc(O)cc1)C(=O)N[C@@H](Cc1c[nH]cn1)C(=O)N[C@@H](CO)C(=O)N[C@@H](CCCCN)C(=O)N[C@@H](CCCNC(=N)N)C(N)=O)[C@@H](C)O [p21μ-T145K] (H-KRRQKSMTDFYHSKR-NH2)
Kd [1, 5]: 10000 nM

CSCC[C@H](NC(=O)[C@H](CO)NC(=O)[C@@H](NC(=O)[C@H](CCC(N)=O)NC(=O)[C@H](CCCNC(=N)N)NC(=O)[C@H](CCCNC(=N)N)NC(=O)[C@@H](N)CCCCN)[C@@H](C)O)C(=O)N[C@H](C(=O)N[C@@H](CC(=O)O)C(=O)N[C@@H](Cc1ccccc1)C(=O)N[C@@H](Cc1ccc(O)cc1)C(=O)N[C@@H](Cc1c[nH]cn1)C(=O)N[C@@H](CO)C(=O)N[C@@H](CCCCN)C(=O)N[C@@H](CCCNC(=N)N)C(N)=O)[C@@H](C)O [p21μ]
Kd [1, 4]: 265 ± 5.9 nM

CC[C@H](C)[C@H](NC(=O)[C@H](CO)NC(=O)[C@H](CCCNC(=N)N)NC(=O)[C@@H](NC(=O)[C@H](CCCNC(=N)N)NC(=O)[C@H](CCC(N)=O)NC(=O)[C@H](CCCNC(=N)N)NC(=O)[C@H](CCCNC(=N)N)NC(=O)[C@@H](N)CCCCN)C(C)C)C(=O)N[C@@H](C)C(=O)N[C@@H](CO)C(=O)N[C@@H](Cc1ccccc1)C(=O)N[C@@H](Cc1ccccc1)C(=O)N[C@@H](Cc1c[nH]cn1)C(=O)N[C@@H](CO)C(=O)N[C@@H](CCCCN)C(=O)N[C@@H](CCCNC(=N)N)C(N)=O [p21μafumDNALIG] (H-KRRQRVRSIASFFHSKR-NH2)
Kd [1, 6]: 458 ± 118 nM

CC(C)C[C@H](NC(=O)[C@H](CCCNC(=N)N)NC(=O)[C@H](CO)NC(=O)[C@H](CCC(N)=O)NC(=O)[C@H](CCCNC(=N)N)NC(=O)[C@H](CCCNC(=N)N)NC(=O)[C@@H](N)CCCCN)C(=O)N[C@@H](CCC(=O)O)C(=O)NCC(=O)N[C@@H](Cc1ccccc1)C(=O)N[C@@H](Cc1ccccc1)C(=O)N[C@@H](Cc1c[nH]cn1)C(=O)N[C@@H](CO)C(=O)N[C@@H](CCCCN)C(=O)N[C@@H](CCCNC(=N)N)C(N)=O [p21μafumFEN1] (H-KRRQSRLEGFFHSKR-NH2)
Kd [1, 6]: 713 ± 56.9 nM

CC[C@H](C)[C@H](NC(=O)[C@H](CC(=O)O)NC(=O)[C@@H](NC(=O)[C@@H]1CCCN1C(=O)[C@H](CCSC)NC(=O)[C@H](CCCNC(=N)N)NC(=O)[C@H](CCCNC(=N)N)NC(=O)[C@@H](N)CCCCN)[C@@H](C)O)C(=O)N[C@@H](CCCNC(=N)N)C(=O)N[C@@H](CC(N)=O)C(=O)N[C@@H](Cc1ccccc1)C(=O)N[C@@H](Cc1ccccc1)C(=O)N[C@@H](Cc1c[nH]cn1)C(=O)N[C@@H](CO)C(=O)N[C@@H](CCCCN)C(=O)N[C@@H](CCCNC(=N)N)C(N)=O [p21μafumRFC] (H-KRRMPTDIRNFFHSKR-NH2)
Kd [1, 6]: 94.8 ± 8.76 nM

p21µ peptide (141-155)
Kd [2]: 265 nM

p21µ-FY150151YF peptide
Kd [2]: 96.4 nM

B1: p21µ-afumRFC peptide (peptide)
peptide: KRRMPTDIRNFFHSKR-NH2
notes: also called p21μafumRFC; p21µRFC; source: synthetic peptide, Genscript Biotech (>95%, HPLC)
Kd [3]: 295 nM

B2: p21µ-T145K peptide (peptide)
peptide: KRRQKSMTDFYHSKR-NH2
Kd [2]: 10000 nM

B3: p21µ-M147L peptide (peptide)
peptide: KRRQTSLTDFYHSKR-NH2
Kd [2]: 382 nM

B4: p21µ-RD2 peptide (peptide)
peptide: KRRQTRITEYFHSKR-NH2
Kd [2]: 20.3 nM

B5: p21µ-T145D peptide (peptide)
peptide: KRRQDSMTDFYHSKR-NH2
Kd [2]: 4100 nM

B6: p21µ-Q144M peptide (peptide)
peptide: KRRMTSMTDFYHSKR-NH2
Kd [2]: 41400 nM

B7: p21µ-M147I peptide (peptide)
peptide: KRRQTSITDFYHSKR-NH2
Kd [2]: 37.1 nM

B8: p21µ-Y151F peptide (peptide)
peptide: KRRQTSMTDFFHSKR-NH2
Kd [2]: 167 nM

B9: p21µ-D149E peptide (peptide)
peptide: KRRQTSMTEFYHSKR-NH2
Kd [2]: 401 nM
